Values belong to the substance of their own block, whether it stands above or below them.
Legend:
[1] = molecular target: RMM BMC-H with GFP10 or GFP11 at the N-terminus (N-ter tagged RMM-10/11); test: split reporter (BiFC, NanoBiT); tripartite GFP in E. coli BL21(DE3) cells; single vector, POI-10 and POI-11 on a bicistronic mRNA under T7p, GFP1-9 independent; IPTG 10 uM from the start, 37°C; Fmax relative to the RMM reference
[2] = molecular target: RMM BMC-H fused to GFP10 or GFP11 through the long linkers Lk30/27 (RMM-10/RMM-11, reference pair); test: as above
[3] = molecular target: SUMO-RMM fused to GFP10 or GFP11 through the long linkers Lk30/27 (SUMO-RMM-GFP10, SUMO-RMM-GFP11); test: as above
[4] = molecular target: K26D/N29D/A53D RMM triple mutant fused to GFP10 or GFP11 (tm-RMM-10/11); test: tripartite GFP (tGFP) reconstitution, in-cell fluorescence Fmax; details: data collected over 16 h, induction from the culture start, read off a plot
[5] = molecular target: N29D/A53D RMM double mutant fused to GFP10 or GFP11 (dm-RMM-10/11); test: as above; details: data collected over 16 h, induction from the culture start, read off a plot
[6] = molecular target: RMM BMC-H fused to GFP10 or GFP11 through the long linkers Lk30/27 (RMM-10/RMM-11, reference pair); test: split reporter (BiFC, NanoBiT); tripartite GFP in E. coli BL21(DE3) cells; single vector, all three partners on a single tricistronic mRNA; IPTG 10 uM from the start, 37°C
SUMO-RMM-His6 = test: SEC; size-exclusion HPLC of TALON-purified samples
[7] = molecular target: K26D RMM single mutant fused to GFP10 or GFP11 (sm-RMM-10/11); test: tripartite GFP (tGFP) reconstitution, in-cell fluorescence Fmax; details: data collected over 16 h, induction from the culture start, read off a plot
His6-tagged RMM = test: SEC; size-exclusion HPLC of TALON-purified samples
[8] = bicistron organization mode, parent: est. 103
[9] = independent-transcript organization mode, Lk30/27 linkers, parent: est. 100
[10] = tricistron organization mode, parent: est. 97

- Fmax as percent of the RMM pair reference [2]: 50 to 65%
- Fmax as percent of the RMM pair reference [3]: 50 to 65%
Substance: SUMO-RMM fused to GFP10 or GFP11 through the long linkers Lk30/27 (SUMO-RMM-GFP10, SUMO-RMM-GFP11)

- percent of parent [5, 8]: 102%
- percent of parent [5, 9]: 124%
- percent of parent [5, 10]: 108%
Substance: RMM BMC-H fused to GFP10 or GFP11 through the long linkers Lk30/27 (RMM-10/RMM-11, reference pair) N29D; A53D

- ratio of RMM versus BWI signals [6]: 2 fold
- ratio of RMM versus BWI signals [2]: 15 fold
- Fmax as percent of the RMM pair reference [3]: 115%
Substance: RMM BMC-H fused to GFP10 or GFP11 through the long linkers Lk30/27 (RMM-10/RMM-11, reference pair) (natural protein)

- stoichiometry N (SUMO-RMM-His6): 12
Substance: SUMO-RMM-His6

The next lines start with the substance.

Substance: RMM BMC-H with GFP10 or GFP11 at the N-terminus (N-ter tagged RMM-10/11) (natural protein)
- fold drop of fluorescence against C-ter tagged RMM [1]: 3 fold

Substance: RMM BMC-H fused to GFP10 or GFP11 through the long linkers Lk30/27 (RMM-10/RMM-11, reference pair) K26D; N29D; A53D
- percent of parent [4, 8]: 39%
- percent of parent [4, 9]: 41%
- percent of parent [4, 10]: 40%

Substance: RMM BMC-H fused to GFP10 or GFP11 through the long linkers Lk30/27 (RMM-10/RMM-11, reference pair) K26D
- percent of parent [7, 8]: 107%
- percent of parent [7, 9]: 119%

Substance: His6-tagged RMM (natural protein)
- stoichiometry N (His6-tagged RMM): 6

Reference: paper PMC10681173
